US6984774

System: Ac transposase (Zea mays)
Experiment: cell_activity
Conditions: in Arabidopsis; GUS recombination stimulated over no-Ac control; Ds excision footprint confirmed by PCR and sequencing; binding not measured directly

In the case of Ds element in GU-Ds-US construct, the activity is reported as > 1000 fold.
